From patent US20060200330A1, “Methods and systems for modeling and simulating biochemical pathways” (KOREA INSTITUTE OF SCIENCE AND TECHNOLOGY, priority 2005, published 2006)
Where two headings read alike, the source gives them in different places.

Assays:
ERK = assay: Western blot of ERK activation (anti-diphosphorylated ERK) in PC12 cells; assay type: cell-based; conditions: PC12 cells treated with 100 ng/ml EGF for 0 to 120 min
Method: (§1) In order to confirm the simulation, PC12 cells treated with EGF (100 ng/ml) were used to measure the time data tracking the activation levels of MEK and ERK, respectively. […] Western blot analysis was performed as follows. PC12 cells were treated with 100 ng/ml EGF for 0 to 120 min. Dissolved protein samples were reacted by using anti-phosphorylated MEK antibodies and anti-diphosphorylated ERK antibodies. Then, the resultant was reacted with anti-HRP (horse radish peroxidase)-conjugated secondary antibodies and confirmed the presence of a band via ECL chemoluminscence.
(§2) PC12 cells treated with EGF or nerve growth factor (NGF) were examined to evaluate the efficacies of PD09859 (10 μM) and U0126 (0.01-10 μM) in respect of MEK and ERK activation. Western blot analysis was performed as follows. PC12 cells treated with PD09859 and U0126 were treated with 100 ng/ml of EGF or NGF for 5 min. Then, the resulting protein sample was separated by performing SDS/PAGE, and then blotted by using anti-phosphorylated MEK and anti-diphosphoryated ERK antibodies. Again, the resultant was blotted by using anti-HRP (horseradish peroxidase) conjugated secondary antibodies and identified in bands by ECL chemo-luminescence.

MEK = assay: Western blot of MEK activation (anti-phosphorylated MEK) in PC12 cells; assay type: cell-based
Method: as §1, §2

EGFR = conditions: cited from earlier work

B1: EGF: peptide growth factor composed of 55 amino acids in a long chain (protein, UniProt P01133 23-1207, looked up)
Pro-epidermal growth factor: PQHWSCPEGTLAGNGNSTCVGPAPFLIFSHGNSIFRIDTEGTNYEQLVVDAGVSVIMDFHYNEKRIYWVDLERQLLQRVFLNGSRQERVCNIEKNVSGMAINWINEEVIWSNQQEGIITVTDMKGNNSHILLSALKYPANVAVDPVERFIFWSSEVAGSLYRADLDGVGVKALLETSEKITAVSLDVLDKRLFWIQYNREGSNSLICSCDYDGGSVHISKHPTQHNLFAMSLFGDRIFYSTWKMKTIWIANKHTGKDMVRINLHSSFVPLGELKVVHPLAQPKAEDDTWEPEQKLCKLRKGNCSSTVCGQDLQSHLCMCAEGYALSRDRKYCEDVNECAFWNHGCTLGCKNTPGSYYCTCPVGFVLLPDGKRCHQLVSCPRNVSECSHDCVLTSEGPLCFCPEGSVLERDGKTCSGCSSPDNGGCSQLCVPLSPVSWECDCFPGYDLQLDEKSCAASGPQPFLLFANSQDIRHMHFDGTDYGTLLSQQMGMVYALDHDPVENKIYFAHTALKWIERANMDGSQRERLIEEGVDVPEGLAVDWIGRRFYWTDRGKSLIGRSDLNGKRSKIITKENISQPRGIAVHPMAKRLFWTDTGINPRIESSSLQGLGRLVIASSDLIWPSGITIDFLTDKLYWCDAKQSVIEMANLDGSKRRRLTQNDVGHPFAVAVFEDYVWFSDWAMPSVMRVNKRTGKDRVRLQGSMLKPSSLVVVHPLAKPGADPCLYQNGGCEHICKKRLGTAWCSCREGFMKASDGKTCLALDGHQLLAGGEVDLKNQVTPLDILSKTRVSEDNITESQHMLVAEIMVSDQDDCAPVGCSMYARCISEGEDATCQCLKGFAGDGKLCSDIDECEMGVPVCPPASSKCINTEGGYVCRCSEGYQGDGIHCLDIDECQLGEHSCGENASCTNTEGGYTCMCAGRLSEPGLICPDSTPPPHLREDDHHYSVRNSDSECPLSHDGYCLHDGVCMYIEALDKYACNCVVGYIGERCQYRDLKWWELRHAGHGQQQKVIVVAVCVVVLVMLLLLSLWGAHYYRTQKLLSKNPKNPYEESSRDVRSRRPADTEDGMSSCPQPWFVVIKEHQDLKNGGQPVAGEDGQAADGSMQPTSWRQEPQLCGMGTEQGCWIPVSSDKGSCPQVMERSFHMPSYGTQTLEGGVEKPHSLLSANPLWQQRALDPPHQMELTQ
modifications: Pro-epidermal growth factor
notes: peptide growth factor composed of 55 amino acids in a long chain
ERK activation, time course (ERK): temporary activation
MEK activation, time course (MEK; PC12 cells treated with 100 ng/ml EGF for 0 to 120 min): temporary activation
MEK activation (MEK; PC12 cells treated with EGF 100 ng/ml for 5 min): became still higher
Kd (EGFR; EGFR high affinity binding, read-out: dissociation constant (Kd), interaction with a high affinity): < 1 nM
Kd (EGFR; EGFR low affinity binding, read-out: dissociation constant (Kd), interaction with a low affinity): 6 to 12 nM
